According to paper PMC7608914, “Bridging of nucleosome-proximal DNA double-strand breaks by PARP2 enhances its interaction with HPF1” (PLoS ONE, 2019):

Columns and labels:
[1] = molecular target: T1, Alexa488-labeled PARP2-WT (human, UniProt Q9UGN5-2 1-570, Alexa Fluor 488 C5 maleimide (extent of labeling typically between 20 and 80%); labelled residue not stated); assay: FRET or BRET; Alexa647-labeled HPF1 (acceptor) titrated from 18.5 μM to 0 μM into 1 μM Alexa488-labeled PARP2 (donor) alone or into the preformed PARP2–Nuc165 complex (1 μM / 100 nM); 50 mM Tris-HCl pH 8, 50 mM NaCl, 1 mM MgCl2, 0.1 mM EDTA, 0.1 mM TCEP, 0.01% NP-40; Hill model; settings: both partners purified
T1 construct: human Poly(ADP-ribose) Polymerase 2, isoform 2 cDNA in pET28b; the mutant made from this vector is called full-length; source: E. coli Rosetta2 (DE3) pLysS, purified (HisTrap, heparin, Superdex 200), then labelled

[2] = molecular target: T2, Alexa488-labeled PARP2-QFRD (human, UniProt Q9UGN5-2 1-570, Q112R | F113D, Alexa Fluor 488 C5 maleimide (extent of labeling typically between 20 and 80%); labelled residue not stated); assay: as above; settings: both partners purified
T2 construct: human Poly(ADP-ribose) Polymerase 2, isoform 2 cDNA in pET28b, Q112R/F113D double point mutant; source: E. coli Rosetta2 (DE3) pLysS, purified (HisTrap, heparin, Superdex 200), then labelled

B1: Alexa647-labeled HPF1 (natural protein, human, UniProt Q9NWY4 1-346, looked up)
chain: MVGGGGKRRPGGEGPQCEKTTDVKKSKFCEADVSSDLRKEVENHYKLSLPEDFYHFWKFCEELDPEKPSDSLSASLGLQLVGPYDILAGKHKTKKKSTGLNFNLHWRFYYDPPEFQTIIIGDNKTQYHMGYFRDSPDEFPVYVGINEAKKNCIIVPNGDNVFAAVKLFLTKKLREITDKKKINLLKNIDEKLTEAARELGYSLEQRTVKMKQRDKKVVTKTFHGAGLVVPVDKNDVGYRELPETDADLKRICKTIVEAASDEERLKAFAPIQEMMTFVQFANDECDYGMGLELGMDLFCYGSHYFHKVAGQLLPLAYNLLKRNLFAEIIEEHLANRSQENIDQLAA
modifications: Alexa Fluor 647 C2 maleimide (extent of labeling typically between 20 and 80%); labelled residue not stated
notes: human HPF1; cDNA amplified by PCR and cloned between the Nde1 and Xho1 sites of pET28a; also called HPF1_Alexa647; HPF1_A647; source: E. coli Rosetta2 (DE3) pLysS, purified (HisTrap, Superdex 75), then labelled
Work on B1 yielded a Kd [1] of over 3 µM and a Kd [2] of over 10 µM.
